Data taken from paper PMC10694668 (The Journal of Biological Chemistry, 2023).
Blank lines part the entries; values can stand above or below the molecule they belong to.

B1: Cg25c NC1 domain of the tissue-extracted (endogenous) NC1 hexamer (domain or fragment, Drosophila (endogenous in fly pellet))
chain: LDYLTGILITRHSQSETVPACSAGHTELWTGYSLLYVDGNDYAHNQDLGSPGSCVPRFSTLPVLSCGQNNVCNYASRNDKTFWLTTNAAIPMMPVENIEIRQYISRCVVCEAPANVIAVHSQTIEVPDCPNGWEGLWIGYSFLMHTAVGNGGGGQALQSPGSCLEDFRATPFIECNGAKGTCHFYETMTSFWMYNLESSQPFERPQQQTIKAGERQSHVSRCQVCMKNSS
modifications: sulfilimine cross-links in the tissue-extracted hexamer
notes: collagen IV Cg25c chain of Drosophila, NC1 domain set free by collagenase; NC1 numbering starts at residue 1551 of P08120; Fly Pellet, DGRC Stock 1661280; also called Cg25c chain; source: purified from Drosophila pellet (collagenase treatment; SEC, Q-sepharose, hydroxyapatite)
B2: Cg25c NC1 domain as it stands in the single-chain CVC trimer (domain or fragment, Drosophila)
chain: B1 chain
notes: collagen IV Cg25c chain of Drosophila, NC1 domain; NC1 numbering starts at residue 1551 of P08120; Not a free chain: joined to the Vkg NC1 domain by GSSASSG linkers on the chain of m5 (it stands there twice; the first copy carries the N-terminal FLAG tag); Made a molecule only for the pairs seen in the CVC crystal structure; source: expiCHO-S cells, as a part of the single-chain CVC trimer; …
B3: Vkg NC1 domain of the tissue-extracted (endogenous) NC1 hexamer (domain or fragment, Drosophila (endogenous in fly pellet))
chain: APKSRGFIFARHSQSVHVPQCPANTNLLWEGYSLSGNVAASRAVGQDLGQSGSCMMRFTTMPYMLCDITNVCHFAQNNDDSLWLSTAEPMPMTMTPIQGRDLMKYISRCVVCETTTRIIALHSQSMSIPDCPGGWEEMWTGYSYFMSTLDNVGGVGQNLVSPGSCLEEFRAQPVIECHGHGRCNYYDALASFWLTVIEEQDQFVQPRQQTLKADFTSKISRCTVCRRRGN
modifications: sulfilimine cross-links in the tissue-extracted hexamer
notes: collagen IV Vkg (Viking) chain of Drosophila, NC1 domain set free by collagenase; NC1 numbering starts at residue 1511 of Q9VMV5; peptides of the tail after the NC1 domain were not detected; Fly Pellet, DGRC Stock 1661280; also called Viking; Vkg chain; source: purified from Drosophila pellet (collagenase treatment; SEC, Q-sepharose, hydroxyapatite)
B4: Vkg NC1 domain as it stands in the single-chain CVC trimer (domain or fragment, Drosophila)
chain: B3 chain
notes: collagen IV Vkg (Viking) chain of Drosophila, NC1 domain; NC1 numbering starts at residue 1511 of Q9VMV5; Not a free chain: joined on both sides to Cg25c NC1 domains by GSSASSG linkers on the chain of m5; Made a molecule only for the pairs seen in the CVC crystal structure; source: expiCHO-S cells, as a part of the single-chain CVC trimer; purified (anti-FLAG resin, SEC)

Columns and labels:
[1] = target: single-chain CVC NC1 trimer (Cg25c-Vkg-Cg25c NC1 domains on one chain, FLAG-tagged, without mEmerald) (Drosophila) (UniProt P08120); test: SEC; trimer peaks pooled, concentrated to ~10 mg/ml, kept at 4 °C for a month (legend: about 6 months) in tris-buffered saline; peaks also pooled and rerun in tris-buffered saline; trimer to hexamer
[2] = target: the molecule itself; test: crystal structure; tissue-extracted NC1 hexamer, ~3.5 mg/ml, 35% MPD, 0.1 M NaCl, 100 mM Hepes pH 7.5, 22 °C; 2.98 Å
[3] = target: the molecule itself; test: crystal structure; recombinant CVC trimer, ~8.5 mg/ml, 0.1 M Na/K phosphate pH 6.5, 0.2 M NaCl, 26% PEG 1000, 22 °C; 1.75 Å; hexamer in the crystal
[4] = target: B1; test: SEC; collagenase digest of Drosophila pellet; hexamer peak at 12.99 ml; then Q-sepharose and hydroxyapatite; single band of the sample not boiled cut out, trypsin or chymotrypsin digestion, MS/MS; settings: both partners purified
[5] = target: B2; test: crystal structure; recombinant CVC trimer, ~8.5 mg/ml, 0.1 M Na/K phosphate pH 6.5, 0.2 M NaCl, 26% PEG 1000, 22 °C; 1.75 Å; hexamer in the crystal; settings: both partners purified

- percent in the hexamer peak [1]: 25%
Molecule: single-chain CVC NC1 trimer (Cg25c-Vkg-Cg25c NC1 domains on one chain, FLAG-tagged, without mEmerald) (from UniProt P08120 1550-1779; Q9VMV5 1510-1739; P08120 1550-1779)

Molecule: B1
- binding result [2]: binds

Molecule: B2
- binding result [3]: binds

Molecule: B3
- binding result [4]: binds

Molecule: B4
- binding result [5]: binds
